Measured values from paper PMC3219716, “Indirect DNA Readout by an H-NS Related Protein: Structure of the DNA Complex of the C-Terminal Domain of Ler”.
Substitutions are numbered along the chain they refer to. Names may count otherwise.

T1: CT-Ler (Escherichia coli EHEC O157:H7, UniProt Q7DB51 70-116)
T1 chain: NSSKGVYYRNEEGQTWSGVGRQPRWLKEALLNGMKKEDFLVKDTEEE

T2: CT-Ler R90G (Escherichia coli EHEC O157:H7, UniProt Q7DB51 70-116, R90G)
T2 chain: T1 chain with R21G

T3: CT-Ler R90Q (Escherichia coli EHEC O157:H7, UniProt Q7DB51 70-116, R90Q)
T3 chain: T1 chain with R21Q

T4: CT-H-NS (UniProt P0ACF8 95-137)
T4 chain: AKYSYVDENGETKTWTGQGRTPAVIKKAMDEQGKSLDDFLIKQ

B1: LeeFG (dsDNA)
DNA 1: AAATAATTGATAATA
DNA 2: TATTATCAATTATTT
B2: LeeH (WT) (dsDNA)
DNA 1: GCGATAATTGATACC
DNA 2: GGTATCAATTATCGC
B3: LeeH A11G (dsDNA)
DNA 1: GCGATAATTGGTACC
DNA 2: GGTACCAATTATCGC
B4: LeeH T8C (dsDNA)
DNA 1: GCGATAACTGATACC
DNA 2: GGTATCAGTTATCGC
B5: LeeH A4G (dsDNA)
DNA 1: GCGGTAATTGATACC
DNA 2: GGTATCAATTACCGC
B6: LeeH A6G (dsDNA)
DNA 1: GCGATGATTGATACC
DNA 2: GGTATCAATCATCGC
B7: AATA 10-mer (dsDNA)
DNA 1: CGCAATAGCG
DNA 2: CGCTATTGCG
B8: LeeH T12C (dsDNA)
DNA 1: GCGATAATTGACACC
DNA 2: GGTGTCAATTATCGC
B9: AAAT 10-mer (dsDNA)
DNA 1: CGCAAATGCG
DNA 2: CGCATTTGCG
B10: AAAA 10-mer (dsDNA)
DNA 1: CGCAAAAGCG
DNA 2: CGCTTTTGCG
B11: LeeH A13G (dsDNA)
DNA 1: GCGATAATTGATGCC
DNA 2: GGCATCAATTATCGC
B12: LeeH A7G (dsDNA)
DNA 1: GCGATAGTTGATACC
DNA 2: GGTATCAACTATCGC
B13: LeeH T9C (dsDNA)
DNA 1: GCGATAATCGATACC
DNA 2: GGTATCGATTATCGC
B14: LeeH G10A (dsDNA)
DNA 1: GCGATAATTAATACC
DNA 2: GGTATTAATTATCGC
B15: LeeH T5C (dsDNA)
DNA 1: GCGACAATTGATACC
DNA 2: GGTATCAATTGTCGC
B16: TTAA 10-mer (dsDNA)
DNA 1: CGCTTAAGCG
DNA 2: CGCTTAAGCG
B17: TATA 10-mer (dsDNA)
DNA 1: CGCTATAGCG
DNA 2: CGCTATAGCG
B18: AATT 10-mer (dsDNA)
DNA 1: CGCAATTGCG
DNA 2: CGCAATTGCG
B19: AATTC 10-mer (dsDNA)
DNA 1: CGGAATTCCG
DNA 2: CGGAATTCCG
B20: LeeF (dsDNA)
DNA 1: TTTCTTTTTTTATTGAAATAATTGATAATA
DNA 2: TATTATCAATTATTTCAATAAAAAAAGAAA
B21: LeeG (dsDNA)
DNA 1: AAATAATTGATAATAATGTTTTTGTTACGT
DNA 2: ACGTAACAAAAACATTATTATCAATTATTT

Molecular target: T1, CT-Ler
Test: fluorescence anisotropy; deviates from 1:1 model, multiple binding suggested; Anisotropy: 40 mM HEPES pH 7.5, 60 mM K-glutamate, 0.01% NaN3, 20 C; EMSA: 15 mM Na-phosphate pH 7.5, 100 mM NaCl, 0.01% NaN3, room temperature; NMR structure:
Conditions: protein: recombinant; tags: N-terminal His6 (pHAT2); blunt

B1: binds.

Molecular target: T2, CT-Ler R90G
Test: fluorescence anisotropy; Anisotropy: 40 mM HEPES pH 7.5, 60 mM K-glutamate, 0.01% NaN3, 20 C; EMSA: 15 mM Na-phosphate pH 7.5, 100 mM NaCl, 0.01% NaN3, room temperature; NMR structure:
Conditions: protein: recombinant; tags: N-terminal His6 (pHAT2); blunt

B2: no binding.

Molecular target: T3, CT-Ler R90Q
Test: as above
Conditions: protein: recombinant; tags: N-terminal His6 (pHAT2); blunt

B2: no binding.

Molecular target: T1, CT-Ler
Test: as above
Conditions: protein: recombinant; tags: N-terminal His6 (pHAT2); blunt

Point of comparison: B4, Kd 1700 ± 130 nM. Against it:
- B3 — within 1.5-fold, 1430 ± 40 nM
- B5 — 1.6-fold lower, 1060 ± 80 nM
- B6 — within 1.5-fold, 2480 ± 200 nM
- B7 — 6.8-fold higher, 11500 ± 960 nM
- B8 — within 1.5-fold, 1450 ± 100 nM
- B9 — 3.6-fold higher, 6170 ± 360 nM
- B10 — 4.7-fold higher, 8070 ± 220 nM
- B2 — 1.5-fold lower, 1100 ± 50 nM
- B11 — within error, 1480 ± 90 nM
- B12 — 1.6-fold higher, 2710 ± 320 nM
- B13 — within 1.5-fold, 1360 ± 80 nM
- B14 — within 1.5-fold, 2310 ± 70 nM
- B15 — within 1.5-fold, 1380 ± 110 nM

Same assay, conditions: protein: recombinant; tags: N-terminal His6 (pHAT2); blunt, self-complementary

Point of comparison: B16, Kd 22800 ± 2990 nM. Against it:
- B17 — within 1.5-fold, 16600 ± 2200 nM
- B18 — 6.6-fold lower, 3450 ± 560 nM
- B19 — 5.5-fold lower, 4140 ± 310 nM

Molecular target: T1, CT-Ler
Test: fluorescence anisotropy; among highest affinities; Anisotropy: 40 mM HEPES pH 7.5, 60 mM K-glutamate, 0.01% NaN3, 20 C; EMSA: 15 mM Na-phosphate pH 7.5, 100 mM NaCl, 0.01% NaN3, room temperature; NMR structure:
Conditions: protein: recombinant; tags: N-terminal His6 (pHAT2); blunt

B20: binds.
B21: binds.

Molecular target: T4, CT-H-NS
Test: NMR titration (1H-15N HSQC); Anisotropy: 40 mM HEPES pH 7.5, 60 mM K-glutamate, 0.01% NaN3, 20 C; EMSA: 15 mM Na-phosphate pH 7.5, 100 mM NaCl, 0.01% NaN3, room temperature; NMR structure:
Conditions: protein: recombinant; tags: N-terminal His6 (pHAT2); blunt, self-complementary

Point of comparison: B18, Kd ~41000 nM. Against it:
- B17 — 2.5-fold higher, ~102000 nM
